Reference: publication PMC13281853 (The FASEB Journal, 2022)

Columns and labels:
[1] = biological target: ancGR2-LBD (ligand-binding domain of the ancestral glucocorticoid receptor 2), Dex-bound; test: SPR
SPR = biological target: the molecule itself; test: SPR

B1: MR-LBD (ligand-binding domain of the mineralocorticoid receptor), Dex-bound (domain or fragment)
chain: QLSTISRALTPSPVMVLENIEPEIVYAGYDSSKPDTAENLLSTLNRLAGKQMIQVVKWAKVLPGFKNLPLEDQITLIQYSWMCLSSFALSWRSYKHTNSQFLYFAPDLVFNEEKMHQSAMYELCQGMHQISLQFVRLQLTFEEYTIMKVLLLLSTIPKDGLKSQAAFEEMRTNYIKELRKMVTKCPNNSGQSWQRFYQLTKLLDSMHDLVSDLLEFCFYTFRESHALKVEFPAMLVEII
B1 showed a Kd [1] of 11.6 ± 1.5 µM and a Kd (SPR) of 1490 ± 410 nM.
